The labels stand for the following.
B1: CADM3404 hG4PE(R409K) (antibody, V domains shown)
VH: EVQLVETGGGVVQPGRSLRLSCAASGFAFSNYGMHWVRQAPGKGLEWVSVIYSGGNTDYADSVKGRFTISRDNSKNTVYLQMNSLRAEDTAVYYCASRRVVPGVIDYFDSWGQGTLVTVSS
VL: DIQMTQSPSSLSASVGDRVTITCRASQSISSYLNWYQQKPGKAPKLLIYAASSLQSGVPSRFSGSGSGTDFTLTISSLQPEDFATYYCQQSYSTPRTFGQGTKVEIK
notes: Human IgG4 variant (S228P, L235E, R409K), vector pCI-hKG4PE(R409K)
B2: CADM3402 hG4PE(R409K) (antibody, V domains shown)
VH: B1 VH with T7S, V11L, R16G, A24T, A28R, N31M, A40S
VL: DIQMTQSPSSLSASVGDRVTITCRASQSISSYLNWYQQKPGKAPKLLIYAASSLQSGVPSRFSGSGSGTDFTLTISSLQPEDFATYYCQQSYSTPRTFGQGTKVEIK
notes: as for B1
B3: CADM3458 hG4PE(R409K) (antibody, V domains shown)
VH: B1 VH with T7S, A28T, N31R, M34I, S49A
VL: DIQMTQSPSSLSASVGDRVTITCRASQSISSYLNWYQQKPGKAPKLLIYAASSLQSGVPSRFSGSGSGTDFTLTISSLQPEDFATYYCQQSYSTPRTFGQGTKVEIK
notes: as for B1
B4: iCADM3_3R1-L10 VHH-hG4PE(R409K) (Fc fusion)
chain: QVQLVESGGGLVQAGGSLRLSCAASGSIFSIHAMGWYRQAPGKQRELVATVTSGGSTNYADSVKGRFTISRDNAKNTVYLQMNSLKPEDTAVYYCNAETPYYSSTYYTNYWGQGTQVTVSS
notes: VHH-Fc antibody; also called anti-CADM3 VHH-Fc antibody iCADM3_3R1-L10; not shown: Hinge-CH2-CH3 region of the human IgG4 heavy chain constant region (IgG4 variant)
B5: CADM3219 hG4PE(R409K) (antibody, V domains shown)
VH: QVQLVQSGAEVKKPGASVKVSCKASGYSFTGYYIHWVRQAPGQGLEWMGRINPNSGGTTYAPKFQGRFTMTRDTSTTTVYLELSGLRSEDTAVYYCARVLERQGRPFEADAFDIWGQGTMVTVSS
VL: not shown
notes: as for B1
B6: CADM3102 scFv-hG4PE (Fc fusion)
VH: QMQLVQSGAEVKKPGSSVKVSCKASGGTFSSYAISWVRQAPGQGLEWMGGIIPMSGTANYAQKFQGRVTITADESTSTAYMELSSLRSEDTAVYYCARVEESGWYDHYHGMDVWGQGTTVTVSS
VL: DVVMTQSPLSLPVTPGEPASISCTSSQSLLYSNGFNYLDWYLQKPGQSPQLLIYLGSNRASGVPDRFSGSGSGTDFTLKISRVEAEDVGVYYCMQALTTHPTFGGGTKVDIK
notes: also called anti-CADM3 scFv-Fc antibody
B7: iCADM3_3R1-L5 VHH-hG4PE(R409K) (Fc fusion)
chain: QVQLVESGGGLVQAGGSLRLSCAASGSIVSVNAMGWYRQAPGKQRELVATITSGGSTNYADSAKGRFTISRDNAKNTMYLQMNSLKPEDTAVYYCNGEFWSRRDTRPPGVVNYWGQGTQVTVSS
notes: VHH-Fc antibody; also called anti-CADM3 VHH-Fc antibody iCADM3_3R1-L5; not shown: Hinge-CH2-CH3 region of the human IgG4 heavy chain constant region (IgG4 variant)
B8: CADM3301 hG4PE(R409K) (antibody, V domains shown)
VH: QMQLVQSGAEVKKPGSSVKVSCKASGGTFNNYAISWVRQAPGQGLEWMGGNIPLSGTPKYAQKFQGRITMTADKSTSTEYMELSSLTSEDTAVYYCARDTPSGYNSPYYYKGMDVWGQGTMVTVSS
VL: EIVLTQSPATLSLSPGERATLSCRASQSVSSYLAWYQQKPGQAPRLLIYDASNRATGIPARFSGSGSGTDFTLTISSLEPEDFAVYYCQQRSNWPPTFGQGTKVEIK
notes: as for B1
B9: CADM3349 hG4PE(R409K) (antibody, V domains shown)
VH: QVQLQQWGGGLLTPSETLSLSCDVSGGAFTNYHWTWIRQPPGKGLEWIGEIFHTGTTNYNPSLQGRVAMSIDTTKRQFFLRLTSLTAADTAVYYCARVGKYGWYVGDFWGQGTTVTVSS
VL: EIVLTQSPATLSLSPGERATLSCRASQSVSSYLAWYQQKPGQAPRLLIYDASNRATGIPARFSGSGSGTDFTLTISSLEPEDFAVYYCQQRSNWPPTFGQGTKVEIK
notes: as for B1
B10: CADM3351 hG4PE(R409K) (antibody, V domains shown)
VH: EVQLLQSGGGLVQPGGSLRLSCAASGLIFSDHYMDWVRQAPGKGLEWVGSIRNKRNGGSTEYAASVKGRFSISRDDSKNSLYLQMNSLKTEDTAMYFCATTRTGYQGFYGMDVWGQGTTVTVSS
VL: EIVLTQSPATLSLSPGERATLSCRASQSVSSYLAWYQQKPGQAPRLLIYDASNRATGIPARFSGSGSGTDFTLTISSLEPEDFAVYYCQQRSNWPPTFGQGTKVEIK
notes: as for B1
B11: CADM3312 hG4PE(R409K) (antibody, V domains shown)
VH: QLQLQESGPGLVKPSETLSLTCSVSGGSIRGHYWSWIRQPPGKGLEWMGYINHIGSAAYNPSLKSRVTISVDTSKNQFSLKLSSVTAADTAVYYCARMGPWWELDYWGQGTLVTVSS
VL: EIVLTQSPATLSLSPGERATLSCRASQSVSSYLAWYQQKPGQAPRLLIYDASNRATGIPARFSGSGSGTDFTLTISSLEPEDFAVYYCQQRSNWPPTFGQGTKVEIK
notes: as for B1
B12: CADM3309 hG4PE(R409K) (antibody, V domains shown)
VH: EVQLVQSGAEMKKPGSSVKLSCKFSGGDFRSYPISWVRQAPGQGLEWMGGIIPIFSRVNYAQRFLGRITITADESTSTAYMELRSLTSDDTAVYYCATDTPSGYNSPYYYKGMDVWGQGTLVTVSS
VL: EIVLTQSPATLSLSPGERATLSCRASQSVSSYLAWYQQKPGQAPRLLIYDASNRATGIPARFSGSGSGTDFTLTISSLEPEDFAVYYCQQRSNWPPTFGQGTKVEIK
notes: as for B1
B13: CADM3316 hG4PE(R409K) (antibody, V domains shown)
VH: EVQLVETGGALVQPGGSLRLSCAASGFTFSSYSMNWVRQAPGKGLEWLSGISGGAFSTHYADSVKGRFTISRDNSKNTLYLQMNSLRAEDTAVYYCARVGRLSGSYNRYYYYYGMDVWGQGTLVTVSS
VL: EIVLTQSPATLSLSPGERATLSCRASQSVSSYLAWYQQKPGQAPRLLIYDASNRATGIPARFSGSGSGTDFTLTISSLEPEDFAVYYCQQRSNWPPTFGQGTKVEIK
notes: as for B1
B14: iCADM3_3R1-L11 VHH-hG4PE(R409K) (Fc fusion)
chain: QVQLVESGGGLVQAGGSLRLSCAASGSIFSFNAMGWYRQAPGKQRGLVAVITSGGYTNYADSVKGRFTITRDNAKNTVYLQMNSLKPEDTAVYYCNAEGVYSDYVIMNYWGQGTQVTVSS
notes: VHH-Fc antibody; also called anti-CADM3 VHH-Fc antibody iCADM3_3R1-L11; not shown: Hinge-CH2-CH3 region of the human IgG4 heavy chain constant region (IgG4 variant)
B15: CADM301 scFv-hG4PE (Fc fusion)
VH: QVQLVQSGAEVRRPGTSVKVSCKASGYSFTSYDINWVRLATGQGLEWMGWMNPNTGDTGSPQKFQDRVTMTRDISTGTAYLELRGLKSEDTAIYYCARGFLVTAYTAEFFPHWGQGTLVTVSS
VL: SYVLTQPPSVSVAPGKTARLTCGGNNIGSKSVHWYQQRPGQAPVLVINYDSDRPSGIPERFSGSNSENTATLTISRVEAGDEADYYCQVWDSGSDHVVFGGGTQLIIL
notes: as for B6
B16: CADM3314 hG4PE(R409K) (antibody, V domains shown)
VH: QVQLVESGGGVVQPGGSLRLSCAASGFSFNNHGMHWVRQAPGKGLEWVTFIRFDGSSKYYADSVKGRFTISRDNSKNTVYLEMNSLRAEDTGVYYCVNTPRGWSFDIWGRGTLVTVSS
VL: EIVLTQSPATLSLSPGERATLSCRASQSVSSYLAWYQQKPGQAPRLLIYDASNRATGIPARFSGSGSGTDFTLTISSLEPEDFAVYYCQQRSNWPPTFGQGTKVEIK
notes: as for B1

Residue numbers refer to the chain shown, from its start. Names may count otherwise.

One assay has as its target T1, hCADM3-GST (human).
T1 construct: also called extracellular domain of human CADM3 to which GST was added at the C-terminal side; human CADM3-GST
Description: SPR (Biacore T-100), antibody captured, hCADM3-GST as analyte. The method, then: (§1) The affinity of the anti-CADM3 antibodies produced in Example 2 for human CADM3 and mouse CADM3 was measured using Biacore T-100 (GE Healthcare). Each of the antibodies was immobilized on a […] sensor chip using a Human antibody Capture kit, and the binding ability was evaluated using hCADM3-GST and mCADM3-GST produced in Example 4 as analytes.
(§2) The obtained sensorgram was analyzed with BIA evaluation software, and the dissociation constant (KD value) was calculated.
As for B1, the binding result is reported as “binds”.

Regarding B2, the binding result is given as “binds”.

B3: the binding result is reported as “binds”.

For the molecule B4, the binding result is “binds”.

For the molecule B5, the binding result was “binds”.

Consider B6, for which the binding result is listed as “binds”.

For B7, the binding result is reported as “binds”.

As for B8, the binding result was “binds”.

Take B9: the binding result is reported as “binds”.

For the molecule B10, the binding result is on record as “binds”.

Regarding B11, the binding result is given as “binds”.

B12: the binding result was “binds”.

For B13, the binding result is “binds”.

Consider B14, for which the binding result is given as “binds”.

For the molecule B15, the binding result is “binds”.

Consider B16, for which the binding result is “binds”.

The target of another assay is T2, human CADM3 (human, UniProt Q8N126 25-398).
T2 construct: Full-length gene expressed transiently on Expi293F cells; also called cell adhesion molecule 3; human CADM3/Expi293F cells
T2 sequence: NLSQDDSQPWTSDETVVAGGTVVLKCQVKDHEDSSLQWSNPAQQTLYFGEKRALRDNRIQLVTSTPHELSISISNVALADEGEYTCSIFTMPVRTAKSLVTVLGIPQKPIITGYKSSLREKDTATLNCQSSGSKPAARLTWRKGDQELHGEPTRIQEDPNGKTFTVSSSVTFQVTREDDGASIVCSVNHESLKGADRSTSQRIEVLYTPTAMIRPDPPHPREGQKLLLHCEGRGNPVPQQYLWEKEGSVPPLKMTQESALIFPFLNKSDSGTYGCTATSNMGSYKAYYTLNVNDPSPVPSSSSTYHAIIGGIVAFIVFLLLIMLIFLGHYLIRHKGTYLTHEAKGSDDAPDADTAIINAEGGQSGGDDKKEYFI
The experiment in a line: flow cytometry, 10 ug/mL, human CADM3/Expi293F vs parent Expi293F cells. Here is the method: By using the cells, the reactivity of the antibodies produced in Example 2 with the CADM3-expressing cells was analyzed by a fluorescence activated cell sorting (FACS) method according to the following procedure.
After washing with SB, the cells were suspended in SB, and the fluorescence intensity of each cell was measured using a flow cytometer FACS CANTO II (manufactured by Becton, Dickinson and Company). Note that as a negative control, 10 μg/mL of the anti-AVM antibody was used.
The detection results were analyzed, and a mean fluorescence intensity (MFI) was calculated using a geometric mean. Further, with respect to the MFI when the concentration of each antibody was 10 μg/mL, the ratio of the MFI (mean fluorescence intensity ratio) between the human CADM3/Expi293F cells and the Expi293F cells (parent cell line) was calculated.
In general terms: A flow cytometer gives signals particle by particle.
Regarding B1, the “Mean fluorescence intensity ratio” value turned out to be 8.7.

Turning to B2, the “Mean fluorescence intensity ratio” value turned out to be 10.8.

Take B3: the “Mean fluorescence intensity ratio” value amounted to 5.7.

Turning to B4, the “Mean fluorescence intensity ratio” value was determined as 37.5.

Consider B5, for which the “Mean fluorescence intensity ratio” value came out at 7.3.

Turning to B6, the “Mean fluorescence intensity ratio” value turned out to be 52.3.

Consider B7, for which the “Mean fluorescence intensity ratio” value worked out at 25.1.

Turning to B8, the “Mean fluorescence intensity ratio” value stood at 6.

Regarding B9, the “Mean fluorescence intensity ratio” value amounted to 4.8.

With B10, the “Mean fluorescence intensity ratio” value stood at 8.2.

Consider B11, for which the “Mean fluorescence intensity ratio” value amounted to 34.4.

As for B12, the “Mean fluorescence intensity ratio” value worked out at 10.2.

On to B13, for which the “Mean fluorescence intensity ratio” value is 6.5.

Turning to B14, the “Mean fluorescence intensity ratio” value was 32.2.

On to B15, for which the “Mean fluorescence intensity ratio” value is 4.22.

As for B16, the “Mean fluorescence intensity ratio” value is 10.

The target in the next assay is T3, mCADM3-GST (mouse).
T3 construct: also called extracellular domain of mouse CADM3 to which GST was added at the C-terminal side; mouse CADM3-GST
Description: SPR (Biacore T-100), antibody captured, mCADM3-GST as analyte. The method, then: as §1, §2
For B1, the binding result is “binds”.

With B2, the binding result is “binds”.

As for B3, the binding result was “binds”.

As to B4, the binding result is “binds”.

B5: the binding result is “binds”.

As for B6, the binding result was “binds”.

For the molecule B7, the binding result is “binds”.

As for B8, the binding result was “binds”.

Turning to B9, the binding result is on record as “binds”.

Turning to B10, the binding result is “binds”.

Take B11: the binding result is on record as “binds”.

As for B12, the binding result was “binds”.

On to B13, for which the binding result was “binds”.

As to B14, the binding result is “binds”.

Turning to B15, the binding result is recorded as “binds”.

As to B16, the binding result was “binds”.

The next assay concerns the target T4, mouse CADM3 (mouse, UniProt Q99N28 23-396).
T4 construct: Full-length gene expressed transiently on Expi293F cells; also called mouse CADM3/Expi293F cells; Mouse CADM3-expressing cells
T4 sequence: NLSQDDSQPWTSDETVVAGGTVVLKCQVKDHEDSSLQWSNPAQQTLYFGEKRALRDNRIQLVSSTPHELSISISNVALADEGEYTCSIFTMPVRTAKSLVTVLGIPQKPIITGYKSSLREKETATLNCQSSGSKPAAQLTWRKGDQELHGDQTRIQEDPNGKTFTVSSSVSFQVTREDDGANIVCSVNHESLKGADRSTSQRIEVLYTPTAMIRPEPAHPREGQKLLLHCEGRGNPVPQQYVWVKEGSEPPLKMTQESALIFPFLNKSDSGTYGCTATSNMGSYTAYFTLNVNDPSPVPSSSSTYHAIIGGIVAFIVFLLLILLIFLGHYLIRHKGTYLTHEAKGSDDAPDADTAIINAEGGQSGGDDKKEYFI
Description: flow cytometry, 10 ug/mL, mouse CADM3/Expi293F vs parent Expi293F cells.
B1: the “Mean fluorescence intensity ratio” value is 8.2.

As to B2, the “Mean fluorescence intensity ratio” value stood at 9.4.

As to B3, the “Mean fluorescence intensity ratio” value was found to be 5.4.

For B4, the “Mean fluorescence intensity ratio” value is 8.87.

Take B5: the “Mean fluorescence intensity ratio” value worked out at 9.2.

As to B6, the “Mean fluorescence intensity ratio” value amounted to 42.6.

In the case of B7, the “Mean fluorescence intensity ratio” value was determined as 4.21.

On to B8, for which the “Mean fluorescence intensity ratio” value came to 6.2.

Regarding B9, the “Mean fluorescence intensity ratio” value was 48.7.

B10: the “Mean fluorescence intensity ratio” value is 8.8.

In the case of B11, the “Mean fluorescence intensity ratio” value was found to be 31.6.

For B12, the “Mean fluorescence intensity ratio” value worked out at 12.5.

Turning to B13, the “Mean fluorescence intensity ratio” value turned out to be 7.1.

Regarding B14, the “Mean fluorescence intensity ratio” value is 35.5.

For B15, the “Mean fluorescence intensity ratio” value amounted to 8.08.

With B16, the “Mean fluorescence intensity ratio” value was 9.2.

(Values after patent US20210147541A1 (Kyowa Kirin, published 2021).)
